For this data set, the target named is ribosomal protein S1 (Escherichia coli, UniProt P0AG67 1-557). Put plainly: EMSA; natural S1; preferred over SBS-Up; EMSA: 1 uM biotin-RNA, 1x EMSA/Gel-shift binding buffer (Beyotime), 20 C, 30 min; native PAGE in ice-cold 0.5x TBE, 170 V; salt and pH not stated.

The results in this text go back to article PMC9437053.

B1: SBS-Down-RNA (ssRNA)
RNA: UCGGCUCGUAUAAUGUGUGGAACGCUUUUACUGUUUUAAGGAGAUAUACC
In the case of B1, the binding result is on record as “binds”.
